Data as given in article PMC7092869 (Biochemical and Biophysical Research Communications, 2018).

Molecular target: the molecule itself
Assay: SEC + AUC

B1: HCoV-229E fusion core (FC1), HR1-linker-HR2 single chain (domain or fragment)
chain: ENQKILAASFNKAMTNIVDAFTGVNDAITQTSQALQTVATALNKIQDVVNQQGNSLNHLTSQLRQNFQLVPRGSGGSGGSGGLEVLFQGPDLVVEQYNQTILNLTSEISTLENKSAELNYTVQKLQTLIDNINSTLVDLKWL
Question: How did the “stoichiometry N” value turn out when B1 was run?
Answer: 3
